These results are taken from patent US20240010730A1 (SHANGHAI HUAOTA BIOPHARMACEUTICAL, published 2024).

Read-outs that look alike come from different tables or passages of the source.

The target of experiment [1] is TIGIT on Jurkat-TIGIT-22G8 cells. Put plainly: cell-based or functional assay.
For experiment [2], the target named is T1, human TIGIT on CHOK1-huTIGIT-2A3 cells (human, UniProt Q495A1 22-244).
T1 construct: whole, on cells; also called cells expressing the human TIGIT
T1 sequence (looked up): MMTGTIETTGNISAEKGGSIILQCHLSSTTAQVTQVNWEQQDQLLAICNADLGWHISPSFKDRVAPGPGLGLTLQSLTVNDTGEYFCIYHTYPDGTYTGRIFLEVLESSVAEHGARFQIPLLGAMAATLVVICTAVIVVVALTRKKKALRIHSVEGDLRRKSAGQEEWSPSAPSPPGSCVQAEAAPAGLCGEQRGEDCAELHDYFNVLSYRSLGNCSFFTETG
The experiment in a line: flow cytometry on CHOK1-huTIGIT-2A3 cells. As to the method: All chimeric antibodies and humanized antibodies were diluted to 20 μg/ml with 1% BSA in PBS solution (1% BSA/PBS), were added to a 96-well U-shaped plate at 20 μL per well; and a negative control (with 1% BSA/PBS added only) was set up at the same time. The suspension of cells (CHOK1-huTIGIT-2A3, Huabo Biopharm) expressing human TIGIT during the logarithmic growth phase were centrifuged (1000 rpm×5 min) to discard the culture medium; and the cells were resuspended with 1% BSA/PBS until the density of viable cells was 1×10⁶/mL, and were added, at 20 μL (2×10⁴ cells) per well, to the 96-well U-shaped plate with the anti-TIGIT antibody to react for 30 min at room temperature. After reaction, the 96-well U-shaped plate was resuspended with 1% BSA/PBS, centrifuged (300 g×3 min) to discard the supernatant, and washed once in such a way; and PE-goat anti-human-Fc (Jackson ImmunoResearch, #109-115-098) diluted at 1:200 was added to react for 15 min in the dark at room temperature. After reaction, the 96-well U-shaped plate was resuspended with 1% BSA/PBS, centrifuged (300 g×3 min) to discard the supernatant, washed three times in such a way, and finally resuspended with 100 μL of 1% BSA/PBS for each wall; and the fluorescence intensity of a PE channel was detected with a flow cytometer (BD, #CantoII).
A general note: Flow cytometry measures light scatter and fluorescence of single cells or particles in a stream.

In experiment [3] the target is T1, human TIGIT on CHOK1-huTIGIT-2A3 cells. Put plainly: flow cytometry competition with huCD155-moFc on CHOK1-huTIGIT-2A3 cells. Here is the method: After reaction, the 96-well U-shaped plate was resuspended with 1% BSA/PBS, centrifuged (300 g×3 min) to discard the supernatant, and washed once in such way; and Alexa488-goat anti-mouse-Fc (Jackson ImmunoResearch, #115-545-071) diluted at 1:300 was added to react for 15 min in the dark at room temperature. After reaction, the 96-well U-shaped plate was resuspended with 1% BSA/PBS, centrifuged (300 g×3 min) to discard the supernatant, washed three times in such a way, and finally resuspended with 100 μL of 1% BSA/PBS for each wall; and the fluorescence intensity of an FITC channel was detected with a flow cytometer (BD, #CantoII).

Experiment [4] addresses T2, Human TIGIT (SPR analyte, Example 7) (human, UniProt Q495A1 22-141, limits assumed).
T2 sequence (looked up): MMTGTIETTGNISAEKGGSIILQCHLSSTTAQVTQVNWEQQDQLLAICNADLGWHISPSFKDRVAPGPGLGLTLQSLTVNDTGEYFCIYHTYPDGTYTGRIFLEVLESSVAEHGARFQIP
Put plainly: SPR (Biacore 8K), antibody captured by anti-human chip, antigen analyte, 1:1 model. Here is the method: (§1) The Anti-Human Capture-CMS chip (GE, #BR-1005-30) was prepared according to the method for conjugating the Human Antibody Capture Kit (GE, #BR-1008-39) to the Amino Conjugation Kit (GE, BR-1000-50).
In general terms: In SPR one partner is held on a chip, and binding of the other changes the refractive index at the surface.

Experiment [5] deals with T2, Human TIGIT (SPR analyte, Example 7). Described as above. Here is the method:
as §1
The source holds these as a separate data set.

In experiment [6] the target is T3, histidine-tagged (His-Tag) human TIGIT protein (huTIGIT, ACRO Biosystems, #TIT-H52H3) (human, UniProt Q495A1 22-141).
T3 construct: Bought reagent; not shown: His tag
T3 sequence (looked up): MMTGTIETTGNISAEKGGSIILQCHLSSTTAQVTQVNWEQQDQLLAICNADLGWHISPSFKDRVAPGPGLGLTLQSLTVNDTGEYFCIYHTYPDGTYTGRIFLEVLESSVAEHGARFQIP
The experiment in a line: SPR (Biacore 8K), antibody captured on Protein A chip, huTIGIT-His analyte, 1:1 model. As to the method: This test determined the antigen-antibody binding kinetics and affinity by using an SPR method. BIOCORE (GE, #Biacore 8K) was used. […] An antibody sample was diluted using an equilibration buffer to an experimental working concentration, and sealed at 2-8° C. for later use. The antigen, namely, the histidine-tagged (His-Tag) human TIGIT protein (huTIGIT, ACRO Biosystems, #TIT-H52H3), was diluted with an equilibration buffer HBS-EP (10×) (GE, #BR-1006-69). Starting at 20 nM, the antigen was diluted by 2.5-fold for 5 concentration gradients, and 2 replications were set up for zero concentration (i.e., the equilibration buffer) and the lowest concentration. The chip was regenerated with pH1.5 glycine solution (GE, #BR100354).

The target of experiment [7] is T4, human TIGIT (hybridoma screening, Table 1) (human, UniProt Q495A1 22-141, limits assumed).
T4 sequence (looked up): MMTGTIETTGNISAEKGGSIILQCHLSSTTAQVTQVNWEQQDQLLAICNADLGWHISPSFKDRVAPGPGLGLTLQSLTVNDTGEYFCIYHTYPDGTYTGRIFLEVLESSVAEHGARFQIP
Put plainly: Biacore (SPR), hybridoma screening.

B1: HB0030 (antibody, human IgG1, kappa, V domains shown)
VH: QVQLQESGPGLVKPSETLSLTCTVSGYSITSDYAWIWIRQPPGKGLEWIGYITSSGSTYYNPSLKSRVTFSVDTSKNQFSLKLSSVTAADTATYYCARLDFGNYGGAMDYWGQGTLVTVSS
VL: DIQMTQSPSSLSASVGDRVTITCRASQHVSTAVNWYQQKPGKAPKLLIYSASYLYSGVPSRFSGSRSGTDFTLTISSLQPEDFATYYCQQHYITPYTFGQGTKLEIKR
notes: Humanized anti-TIGIT IgG1; also called 900461; TIGIT parental monoclonal antibody
For B1, the “EC50 (nM), IL2 secretion of Jurkat-TIGIT-22G8 cells with PHA and CD155” value in experiment [1] amounted to 5.82 nM. Also, the EC50 (in general, the concentration needed to bring the measured effect to its halfway point) in experiment [2] amounted to 0.0466 µg/mL. In experiment [3], the IC50 (as a rule, the concentration at which inhibition is half-maximal) worked out at 0.0573 µg/mL. For the same molecule, the Kd (usually the equilibrium constant for the complex coming apart) in experiment [4] was 0.0346 nM; in experiment [5] it was 0.0345 nM; in experiment [6], 0.0583 nM. Moreover, the off-rate constant (koff) (as a rule, a measure of how fast the partners let go of each other) in experiment [4] amounted to 0.000175 s⁻¹; in experiment [5] it was 0.000167 s⁻¹; in experiment [6], 0.000185 s⁻¹. Further, the kon (commonly a measure of how fast the partners come together) in experiment [4] was 5.07e+06 M⁻¹ s⁻¹; in experiment [5] it was 4.82e+06 M⁻¹ s⁻¹; in experiment [6], 3.17e+06 M⁻¹ s⁻¹.

B2: B3/29F6 (antibody, V domains shown)
VH: DVQLQESGPGLVKPSQSLSLTCTVTGYSITSDYAWIWIRQFPGNKVEWMGYITSSGSTSYNPSLKSRISFTRDTSKNQFFLQLTSVTTEDTATYYCARLDFGNYGGAMDYWGQGTSVTVSS
VL: DIVMTQSHKFMSTSIGDRVSITCKASQHVSTAVAWYQQKPGQSPKLLIYSASYRYTGVPDRFTGSRSGTDFTFTISSVQAEDLAVYYCQQHYITPYTFGGGTKLEIK
notes: Mouse hybridoma antibody
Take B2: in experiment [7], the Kd was 0.0139 nM.
